The values below come from paper PMC10512374, “Characterization and Phylogenetic Analysis of a Novel GH43 β-Xylosidase From Neocallimastix californiae” (Frontiers in Fungal Biology, 2021).

A word on the Ki: it is the dissociation constant of the complex between target and ligand, obtained from inhibition or displacement. A high value points to lower affinity. By Km is commonly meant the substrate concentration at which the rate is half of its maximum. The Vmax is the rate approached at saturating substrate. The kcat is the maximal rate divided by the concentration of active sites.

One data set addresses T1, Xyl43Nc (Neocallimastix californiae, UniProt A0A1Y2A0L6).
T1 construct: E. coli BL21 pLysS (DE3); HisTrap and Sephacryl S-200
T1 sequence (A0A1Y2A0L6 1-326): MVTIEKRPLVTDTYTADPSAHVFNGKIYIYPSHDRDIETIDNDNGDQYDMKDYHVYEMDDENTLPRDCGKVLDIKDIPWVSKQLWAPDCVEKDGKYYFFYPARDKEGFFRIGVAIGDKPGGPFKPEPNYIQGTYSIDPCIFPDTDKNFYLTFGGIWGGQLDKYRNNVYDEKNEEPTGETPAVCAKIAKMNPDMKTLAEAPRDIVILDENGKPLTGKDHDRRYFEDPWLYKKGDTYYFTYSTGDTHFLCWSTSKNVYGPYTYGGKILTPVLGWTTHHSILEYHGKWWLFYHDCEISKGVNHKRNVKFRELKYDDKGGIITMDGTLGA
Description: product inhibition of 4-nitrophenyl xyloside hydrolysis, […] nm, curve fit. The data set is classed as biochemical. To be noted: competitive, xylose 0-10 mM, substrate 4-nitrophenol-xylopyranoside 0.25-7.5 mM.

Substrate in the data set “purified protein”: O=[N+]([O-])c1ccc(O[C@@H]2OC[C@@H](O)[C@H](O)[C@H]2O)cc1
Description: purified protein. The data set is classed as biochemical, Neocallimastix californiae. To be noted: pH 6, 32 °C, no added metal.

`OC1OC[C@@H](O)[C@H](O)[C@H]1O` (stereo partly shown) [xylose]: at Xyl43Nc, affinity was put at a Ki of 6.11 mM.

B1: Xyl43Nc (Neocallimastix californiae) (protein)
chain: MVTIEKRPLVTDTYTADPSAHVFNGKIYIYPSHDRDIETIDNDNGDQYDMKDYHVYEMDDENTLPRDCGKVLDIKDIPWVSKQLWAPDCVEKDGKYYFFYPARDKEGFFRIGVAIGDKPGGPFKPEPNYIQGTYSIDPCIFPDTDKNFYLTFGGIWGGQLDKYRNNVYDEKNEEPTGETPAVCAKIAKMNPDMKTLAEAPRDIVILDENGKPLTGKDHDRRYFEDPWLYKKGDTYYFTYSTGDTHFLCWSTSKNVYGPYTYGGKILTPVLGWTTHHSILEYHGKWWLFYHDCEISKGVNHKRNVKFRELKYDDKGGIITMDGTLGA
notes: E. coli BL21 pLysS (DE3); HisTrap and Sephacryl S-200
For B1, in the data set “purified protein”, the Km turned out to be 0.72 mM, the maximum rate (Vmax) was determined as 47 µmol/min/mg and the kcat is 29.3 s⁻¹.
